Assay [1] deals with T1, nfP2X7 CAR 1.
T1 construct: Expressed on T cells with truncated EGFR as marker gene; also called anti-nfP2X7 receptor CAR 1; nfP2X7 targeted CAR on EGFR+ T cells
Put plainly: flow cytometry, CAR T cells, anti-His-FITC, EGFR+ MFI over background 0.4. The essentials:
(§1)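 CAR T cells incubated with BRiDGE variants at saturating concentrations; bound BRiDGE detected with anti-His-FITC by flow cytometry. EGFR marks CAR expression. Value is median fluorescence intensity on EGFR+ (CAR+) cells divided by that on EGFR− (CAR−) cells.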

The target of assay [2] is T1, nfP2X7 CAR 1. Put plainly: flow cytometry, CAR T cells, anti-His-FITC, EGFR+ over EGFR- cells. The essentials: as §1
(A flow cytometer gives signals particle by particle.)

The target of assay [3] is T1, nfP2X7 CAR 1. Put plainly: flow cytometry, nfP2X7 CAR T cells (EGFR+), anti-His-FITC detection.
Assay [4] has as its target T2, CD33 (UniProt P20138 18-364, limits assumed).
T2 construct: whole, on cells; also called Siglec-3; CD33 on MOLM-13 cells
Put plainly: flow cytometry, MOLM-13 cells, anti-His-FITC detection, ratio to no bridge. How it is done: (§2) MOLM-13 cells were incubated with different CD33 BRIDGE variants at saturating concentrations. […] The MFI intensity correlates with the number of secondary antibodies bound to the CD33 BRIDGE variants that are only detected if they are bound to the MOLM-13 cells. MFI: median fluorescence intensity. BLItz: Bio-Layer interferometry (BLI) technology using HIS-tag identification tips. […] The higher the MFIR, the stronger the binding.

In assay [5] the target is T2, CD33. Put plainly: flow cytometry, MOLM-13 cells, anti-His-FITC detection. As for the experimental part: as §2

The results in this text go back to patent US20250281611A1 (BIOSCEPTRE AUST, published 2025).

T2 sequence (P20138 18-364 limits assumed): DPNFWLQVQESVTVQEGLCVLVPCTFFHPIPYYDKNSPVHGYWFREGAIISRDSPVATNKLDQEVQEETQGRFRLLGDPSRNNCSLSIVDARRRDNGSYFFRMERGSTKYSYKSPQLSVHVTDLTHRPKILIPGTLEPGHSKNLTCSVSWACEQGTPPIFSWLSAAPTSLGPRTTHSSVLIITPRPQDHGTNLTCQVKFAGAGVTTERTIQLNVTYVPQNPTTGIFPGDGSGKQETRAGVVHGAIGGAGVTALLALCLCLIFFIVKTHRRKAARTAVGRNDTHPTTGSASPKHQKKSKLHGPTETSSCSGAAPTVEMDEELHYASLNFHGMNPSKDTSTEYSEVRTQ

B1: CD33 PURIFIED BRIDGE (Fab, V domains shown)
VH: QVQLVQSGAEVKKPGSSVKVSCKASGYTFTDYNMHWVRQAPGQGLEWIGYIYPYNGGTGYNQKFKSKATITADESTNTAYMELSSLRSEDTAVYYCARGRPAMDYWGQGTLVTVSS
VL: DIQMTQSPSSLSASVGDRVTITCRASESVDNYGISFMNWFQQKPGKAPKLLIYAASNQGSGVPSRFSGSGSGTDFTLTISSLQPDDFATYYCQQSKEVPWTFGQGTKVEIKR
notes: also called old variant; original E200 CD33 Fab bridging molecule derived from lintuzumab
Turning to B1, the “HisTag MFI Ratio (background 0.4)” value with nfP2X7 CAR 1 [1] came out at 4. Moreover, the “HisTag MFI Ratio of EGFR+/EGFR-” value with nfP2X7 CAR 1 [2] turned out to be 4. Also, in the assay with nfP2X7 CAR 1 [3], the “MFI HisTag FITC in EGFR+ Population” value worked out at 1.58. The “MFIR HisTag FITC” value with CD33 [4] came out at 10.6. Further, the “MFI HisTag FITC” value with CD33 [5] is 7.12.

B2: CD33 BRIDGE variant B32 (Fab)
light: DFPGHNYTTRNILPGLNITSGSEPKSSDKTHTGGGGSDIQMTQSPSSLSASVGDRVTITCRASESVDNYGISFMNWFQQKPGKAPKLLIYAASNQGSGVPSRFSGSGSGTDFTLTISSLQPDDFATYYCQQSKEVPWTFGQGTKVEIKRTVAAPSVFIFPPSDEQLKSGTASVVCLLNNFYPREAKVQWKVDNALQSGNSQESVTEQDSKDSTYSLSSTLTLSKADYEKHKVYACEVTHQGLSSPVTKSFNRGECHHHHHH
heavy: QVQLVQSGAEVKKPGSSVKVSCKASGYTFTDYNMHWVRQAPGQGLEWIGYIYPYNGGTGYNQKFKSKATITADESTNTAYMELSSLRSEDTAVYYCARGRPAMDYWGQGTLVTVSSASTKGPSVFPLAPSSKSTSGGTAALGCLVKDYFPEPVTVSWNSGALTSGVHTFPAVLQSSGLYSLSSVVTVPSSSLGTQTYICNVNHKPSNTKVDKKVEPKSCHHHHHH
notes: Lintuzumab-based Fab bridging molecule
For B2, the “HisTag MFI Ratio (background 0.4)” value with nfP2X7 CAR 1 [1] was found to be 4. Moreover, in the assay with nfP2X7 CAR 1 [2], the “HisTag MFI Ratio of EGFR+/EGFR-” value was determined as 3.3. In addition, the “MFI HisTag FITC in EGFR+ Population” value with nfP2X7 CAR 1 [3] came to 1.59. Moreover, the “MFIR HisTag FITC” value with CD33 [4] came out at 9.99. In the assay with CD33 [5], the “MFI HisTag FITC” value worked out at 6.69.

B3: CD33 BRIDGE variant B35 (Fab)
light: DFPGHNYTTRNILPGLNITSTFHKTSGSGKGSEPKSSDKTHTGGGGSDIQMTQSPSSLSASVGDRVTITCRASESVDNYGISFMNWFQQKPGKAPKLLIYAASNQGSGVPSRFSGSGSGTDFTLTISSLQPDDFATYYCQQSKEVPWTFGQGTKVEIKRTVAAPSVFIFPPSDEQLKSGTASVVCLLNNFYPREAKVQWKVDNALQSGNSQESVTEQDSKDSTYSLSSTLTLSKADYEKHKVYACEVTHQGLSSPVTKSFNRGECHHHHHH
heavy: QVQLVQSGAEVKKPGSSVKVSCKASGYTFTDYNMHWVRQAPGQGLEWIGYIYPYNGGTGYNQKFKSKATITADESTNTAYMELSSLRSEDTAVYYCARGRPAMDYWGQGTLVTVSSASTKGPSVFPLAPSSKSTSGGTAALGCLVKDYFPEPVTVSWNSGALTSGVHTFPAVLQSSGLYSLSSVVTVPSSSLGTQTYICNVNHKPSNTKVDKKVEPKSCHHHHHH
notes: as for B2
In the case of B3, the “HisTag MFI Ratio (background 0.4)” value with nfP2X7 CAR 1 [1] came out at 5.4. Further, the “HisTag MFI Ratio of EGFR+/EGFR-” value with nfP2X7 CAR 1 [2] is 3.8. For the same molecule, in the assay with nfP2X7 CAR 1 [3], the “MFI HisTag FITC in EGFR+ Population” value was 2.15. Moreover, the “MFIR HisTag FITC” value with CD33 [4] amounted to 9.88. Moreover, the “MFI HisTag FITC” value in the assay with CD33 [5] came to 6.62.

B4: CD33 BRIDGE variant B33 (Fab)
light: DFPGHNYTTRNILPGLNITSGGGGSEPKSSDKTHTGGGGSDIQMTQSPSSLSASVGDRVTITCRASESVDNYGISFMNWFQQKPGKAPKLLIYAASNQGSGVPSRFSGSGSGTDFTLTISSLQPDDFATYYCQQSKEVPWTFGQGTKVEIKRTVAAPSVFIFPPSDEQLKSGTASVVCLLNNFYPREAKVQWKVDNALQSGNSQESVTEQDSKDSTYSLSSTLTLSKADYEKHKVYACEVTHQGLSSPVTKSFNRGECHHHHHH
heavy: QVQLVQSGAEVKKPGSSVKVSCKASGYTFTDYNMHWVRQAPGQGLEWIGYIYPYNGGTGYNQKFKSKATITADESTNTAYMELSSLRSEDTAVYYCARGRPAMDYWGQGTLVTVSSASTKGPSVFPLAPSSKSTSGGTAALGCLVKDYFPEPVTVSWNSGALTSGVHTFPAVLQSSGLYSLSSVVTVPSSSLGTQTYICNVNHKPSNTKVDKKVEPKSCHHHHHH
notes: as for B2
In the case of B4, the “HisTag MFI Ratio (background 0.4)” value with nfP2X7 CAR 1 [1] amounted to 4.2. For the same molecule, in the assay with nfP2X7 CAR 1 [2], the “HisTag MFI Ratio of EGFR+/EGFR-” value was 3.4. For the same molecule, the “MFI HisTag FITC in EGFR+ Population” value with nfP2X7 CAR 1 [3] worked out at 1.69. Further, the “MFIR HisTag FITC” value in the assay with CD33 [4] was found to be 10.4. Besides, the “MFI HisTag FITC” value with CD33 [5] turned out to be 6.96.

B5: CD33 BRIDGE variant B34 (Fab)
light: DFPGHNYTTRNILPGLNITSTFHKTSGSGKEPKSSDKTHTGGGGSDIQMTQSPSSLSASVGDRVTITCRASESVDNYGISFMNWFQQKPGKAPKLLIYAASNQGSGVPSRFSGSGSGTDFTLTISSLQPDDFATYYCQQSKEVPWTFGQGTKVEIKRTVAAPSVFIFPPSDEQLKSGTASVVCLLNNFYPREAKVQWKVDNALQSGNSQESVTEQDSKDSTYSLSSTLTLSKADYEKHKVYACEVTHQGLSSPVTKSFNRGECHHHHHH
heavy: QVQLVQSGAEVKKPGSSVKVSCKASGYTFTDYNMHWVRQAPGQGLEWIGYIYPYNGGTGYNQKFKSKATITADESTNTAYMELSSLRSEDTAVYYCARGRPAMDYWGQGTLVTVSSASTKGPSVFPLAPSSKSTSGGTAALGCLVKDYFPEPVTVSWNSGALTSGVHTFPAVLQSSGLYSLSSVVTVPSSSLGTQTYICNVNHKPSNTKVDKKVEPKSCHHHHHH
notes: as for B2
B5: the “HisTag MFI Ratio (background 0.4)” value in the assay with nfP2X7 CAR 1 [1] stood at 3.3. Besides, in the assay with nfP2X7 CAR 1 [2], the “HisTag MFI Ratio of EGFR+/EGFR-” value is 3. For the same molecule, the “MFI HisTag FITC in EGFR+ Population” value with nfP2X7 CAR 1 [3] was 1.31. Further, the “MFIR HisTag FITC” value with CD33 [4] is 10.4. Also, the “MFI HisTag FITC” value with CD33 [5] was found to be 6.98.

B6: CD33 BRIDGE variant B36 (Fab)
light: DFPGHNYTTRNILPGLNITSTFHKTSGSGKGGGGSEPKSSDKTHTGGGGSDIQMTQSPSSLSASVGDRVTITCRASESVDNYGISFMNWFQQKPGKAPKLLIYAASNQGSGVPSRFSGSGSGTDFTLTISSLQPDDFATYYCQQSKEVPWTFGQGTKVEIKRTVAAPSVFIFPPSDEQLKSGTASVVCLLNNFYPREAKVQWKVDNALQSGNSQESVTEQDSKDSTYSLSSTLTLSKADYEKHKVYACEVTHQGLSSPVTKSFNRGECHHHHHH
heavy: QVQLVQSGAEVKKPGSSVKVSCKASGYTFTDYNMHWVRQAPGQGLEWIGYIYPYNGGTGYNQKFKSKATITADESTNTAYMELSSLRSEDTAVYYCARGRPAMDYWGQGTLVTVSSASTKGPSVFPLAPSSKSTSGGTAALGCLVKDYFPEPVTVSWNSGALTSGVHTFPAVLQSSGLYSLSSVVTVPSSSLGTQTYICNVNHKPSNTKVDKKVEPKSCHHHHHH
notes: as for B2
Turning to B6, the “HisTag MFI Ratio (background 0.4)” value with nfP2X7 CAR 1 [1] amounted to 4.1. For the same molecule, in the assay with nfP2X7 CAR 1 [2], the “HisTag MFI Ratio of EGFR+/EGFR-” value stood at 3.3. Besides, the “MFI HisTag FITC in EGFR+ Population” value in the assay with nfP2X7 CAR 1 [3] worked out at 1.65. Moreover, in the assay with CD33 [4], the “MFIR HisTag FITC” value is 10. For the same molecule, the “MFI HisTag FITC” value in the assay with CD33 [5] amounted to 6.72.
